Data as given in IntAct's records for PubMed 23142979.

Biological target: DAXX, Q9UER7-1
Sequence (Q9UER7 whole entry): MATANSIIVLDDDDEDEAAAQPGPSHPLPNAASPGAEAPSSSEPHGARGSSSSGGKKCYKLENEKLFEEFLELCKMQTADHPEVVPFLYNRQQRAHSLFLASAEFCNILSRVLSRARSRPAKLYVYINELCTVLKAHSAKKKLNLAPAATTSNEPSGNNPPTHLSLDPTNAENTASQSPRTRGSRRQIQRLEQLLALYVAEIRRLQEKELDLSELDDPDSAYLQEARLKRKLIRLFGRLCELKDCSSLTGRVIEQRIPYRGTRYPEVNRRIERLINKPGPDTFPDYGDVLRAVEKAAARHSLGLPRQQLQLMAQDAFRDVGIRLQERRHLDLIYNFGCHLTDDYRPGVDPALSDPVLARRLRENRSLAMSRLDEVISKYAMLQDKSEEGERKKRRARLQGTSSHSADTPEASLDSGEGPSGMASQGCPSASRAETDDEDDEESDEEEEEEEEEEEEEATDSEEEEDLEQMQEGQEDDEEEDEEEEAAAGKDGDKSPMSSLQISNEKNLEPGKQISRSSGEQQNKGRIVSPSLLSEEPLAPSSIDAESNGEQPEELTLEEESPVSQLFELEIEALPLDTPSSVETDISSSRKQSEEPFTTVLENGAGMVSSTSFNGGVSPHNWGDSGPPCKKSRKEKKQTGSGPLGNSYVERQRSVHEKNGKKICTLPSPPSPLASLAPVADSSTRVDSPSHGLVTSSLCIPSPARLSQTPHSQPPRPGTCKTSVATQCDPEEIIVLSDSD

Histone H3.1 (Homo sapiens) (from UniProt P68431) S88A
effect of a mutation on the interaction: increasing interaction strength
